The results in this text go back to patent US20260098092A1 (CHULALONGKORN UNIVERSITY, published 2026).

The chains are these.
B1: Modified Seq11 (modified zCUSB0136.8 antibody) (antibody, V domains shown)
VH: QVQLQESGPGLVKPSETLSLTCTVSGFSLTTYDIIWIRQSPGKGLEWLGVIWTGGDTTYNSAFMSRLTISKDTSKNQISLKMSSLTAADTAVYYCARDWAYWGQGTLVTVSS
VL: DIVLTQSPDSLAVSLGERATISCRASESVDNYGNSFIQWYQQKPGQPPKLLIYFASYLQSGVPDRFSGSGSGTDFTLTISSVQAEDVATYYCHQNNEDPFTFGGGTKLEIK
B2: Modified Seq13 (modified zCUSB0136.8 antibody) (antibody, V domains shown)
VH: B1 VH
VL: B1 VL
B3: Modified Seq21 (modified zCUSB0136.8 antibody) (antibody, V domains shown)
VH: B1 VH
VL: B1 VL with Y32W, Y57N
B4: Modified Seq5 (modified zCUSB0136.8 antibody) (antibody, V domains shown)
VH: B1 VH with T31V, A100M
VL: B1 VL
B5: Modified Seq24 (modified zCUSB0136.8 antibody) (antibody, V domains shown)
VH: B1 VH with T31V
VL: B1 VL with Y57Q
B6: Modified Seq17 (modified zCUSB0136.8 antibody) (antibody, V domains shown)
VH: B1 VH with T31V
VL: B1 VL
B7: Modified Seq19 (modified zCUSB0136.8 antibody) (antibody, V domains shown)
VH: B1 VH
VL: B1 VL with Y32W, Y57N
B8: Modified Seq18 (modified zCUSB0136.8 antibody) (antibody, V domains shown)
VH: B1 VH
VL: B1 VL with Y32W, Y57Q
B9: Modified Seq2 (modified zCUSB0136.8 antibody) (antibody, V domains shown)
VH: B1 VH with T31V, A100I
VL: B1 VL
B10: Modified Seq7 (modified zCUSB0136.8 antibody) (antibody, V domains shown)
VH: B1 VH with A100M
VL: B1 VL
B11: Modified Seq1 (modified zCUSB0136.8 antibody) (antibody, V domains shown)
VH: B1 VH with T58W
VL: B1 VL with Y32W
B12: Modified Seq8 (modified zCUSB0136.8 antibody) (antibody, V domains shown)
VH: B1 VH with T58W, A100I
VL: B1 VL
B13: Modified Seq9 (modified zCUSB0136.8 antibody) (antibody, V domains shown)
VH: B1 VH with T58N
VL: B1 VL
B14: Modified Seq23 (modified zCUSB0136.8 antibody) (antibody, V domains shown)
VH: B1 VH with T31V, T58N
VL: B1 VL with Y32W
B15: Modified Seq25 (modified zCUSB0136.8 antibody) (antibody, V domains shown)
VH: B1 VH
VL: B1 VL with Y57H
B16: Modified Seq15 (modified zCUSB0136.8 antibody) (antibody, V domains shown)
VH: B1 VH with T31V
VL: B1 VL with Y32W, Y57N
B17: Modified Seq14 (modified zCUSB0136.8 antibody) (antibody, V domains shown)
VH: B1 VH with A100I
VL: B1 VL with Y32W, Y57N
B18: Modified Seq10 (modified zCUSB0136.8 antibody) (antibody, V domains shown)
VH: B1 VH with T58W, A100M
VL: B1 VL with Y32W, Y57H
B19: Modified Seq6 (modified zCUSB0136.8 antibody) (antibody, V domains shown)
VH: B1 VH with A100I
VL: B1 VL
B20: Modified Seq12 (modified zCUSB0136.8 antibody) (antibody, V domains shown)
VH: B1 VH with T31V, A100I
VL: B1 VL with Y32W, Y57H
B21: Modified Seq22 (modified zCUSB0136.8 antibody) (antibody, V domains shown)
VH: B1 VH
VL: B1 VL with Y32W, Y57N
B22: Modified Seq4 (modified zCUSB0136.8 antibody) (antibody, V domains shown)
VH: B1 VH with T31V
VL: B1 VL
B23: Modified Seq20 (modified zCUSB0136.8 antibody) (antibody, V domains shown)
VH: B1 VH with T31V, A100I
VL: B1 VL with Y57H
B24: Modified Seq3 (modified zCUSB0136.8 antibody) (antibody, V domains shown)
VH: B1 VH with A100I
VL: B1 VL with Y32W

Substitutions are numbered along the chain they refer to.

T1 sequence (Q15116 25-167 limits assumed): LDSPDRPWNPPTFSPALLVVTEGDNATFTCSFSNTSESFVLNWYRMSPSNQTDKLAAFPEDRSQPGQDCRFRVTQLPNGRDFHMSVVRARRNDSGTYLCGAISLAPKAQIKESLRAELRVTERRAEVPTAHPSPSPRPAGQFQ

This test concerns the target T1, recombinant human PD-1 His-tag protein (R&D Systems) (human, UniProt Q15116 25-167).
T1 construct: Bought reagent; Used for the ELISA (coated) and for SPR (analyte); also called PD-1 protein; human PD-1 protein; not shown: His-tag
Briefly: binding kinetics (method not described at the table; presumably SPR as in Example 8).
One may read the Kd as the concentration at which binding is half-saturated. Usually koff stands for the first-order rate constant of dissociation. As usually defined, the kon is the rate constant with which the complex forms. Turning to B1, the Kd was found to be 0.0206 nM, the koff was determined as 7.57e-05 s⁻¹ and the on-rate (kon) came to 3.67e+06 M⁻¹ s⁻¹.

On to B2, for which the Kd amounted to 0.0243 nM, the off-rate constant (koff) was determined as 8.47e-05 s⁻¹ and the kon turned out to be 3.49e+06 M⁻¹ s⁻¹.

As to B3, the Kd is 0.0412 nM, the koff came out at 0.000104 s⁻¹ and the on-rate constant (kon) was found to be 2.52e+06 M⁻¹ s⁻¹.

For B4, the dissociation constant Kd was 0.0108 nM, the koff amounted to 4.36e-05 s⁻¹ and the kon is 4.06e+06 M⁻¹ s⁻¹.

For B5, the Kd worked out at 0.0618 nM, the koff amounted to 0.000112 s⁻¹ and the on-rate (kon) came to 1.81e+06 M⁻¹ s⁻¹.

For the molecule B6, the Kd is 0.0289 nM, the koff was 7.39e-05 s⁻¹ and the kon was 2.56e+06 M⁻¹ s⁻¹.

For the molecule B7, the Kd is 0.0315 nM, the off-rate (koff) was found to be 7.97e-05 s⁻¹ and the kon was determined as 2.53e+06 M⁻¹ s⁻¹.

Turning to B8, the dissociation constant Kd is 0.0307 nM, the dissociation rate constant (koff) worked out at 7.82e-05 s⁻¹ and the kon amounted to 2.54e+06 M⁻¹ s⁻¹.

As for B9, the dissociation constant (Kd) came to 0.00571 nM, the koff came to 2.53e-05 s⁻¹ and the kon worked out at 4.44e+06 M⁻¹ s⁻¹.

For the molecule B10, the dissociation constant (Kd) came out at 0.0142 nM, the dissociation rate constant (koff) amounted to 5.48e-05 s⁻¹ and the kon is 3.84e+06 M⁻¹ s⁻¹.

Turning to B11, the equilibrium dissociation constant (Kd) was 0.00539 nM, the dissociation rate constant (koff) is 2.81e-05 s⁻¹ and the on-rate (kon) amounted to 5.21e+06 M⁻¹ s⁻¹.

Turning to B12, the Kd is 0.0147 nM, the koff is 6.09e-05 s⁻¹ and the kon is 4.13e+06 M⁻¹ s⁻¹.

For B13, the Kd came to 0.0158 nM, the off-rate constant (koff) came to 5.98e-05 s⁻¹ and the on-rate constant (kon) was determined as 3.78e+06 M⁻¹ s⁻¹.

Consider B14, for which the Kd was 0.0582 nM, the koff turned out to be 0.000288 s⁻¹ and the kon was 4.96e+06 M⁻¹ s⁻¹.

In the case of B15, the Kd amounted to 0.0664 nM, the koff came to 0.000145 s⁻¹ and the kon worked out at 2.18e+06 M⁻¹ s⁻¹.

For the molecule B16, the Kd amounted to 0.0246 nM, the dissociation rate constant (koff) came to 6.3e-05 s⁻¹ and the association rate constant (kon) was 2.56e+06 M⁻¹ s⁻¹.

Consider B17, for which the Kd came out at 0.0244 nM, the koff is 6.5e-05 s⁻¹ and the kon was determined as 2.67e+06 M⁻¹ s⁻¹.

As to B18, the dissociation constant Kd is 0.0174 nM, the off-rate (koff) stood at 6.74e-05 s⁻¹ and the on-rate constant (kon) turned out to be 3.87e+06 M⁻¹ s⁻¹.

For the molecule B19, the equilibrium dissociation constant (Kd) amounted to 0.0136 nM, the koff was 5.45e-05 s⁻¹ and the on-rate constant (kon) amounted to 4e+06 M⁻¹ s⁻¹.

Turning to B20, the dissociation constant (Kd) is 0.0225 nM, the koff was determined as 6.81e-05 s⁻¹ and the on-rate (kon) came out at 3.03e+06 M⁻¹ s⁻¹.

Regarding B21, the dissociation constant (Kd) was determined as 0.057 nM, the off-rate (koff) turned out to be 0.000134 s⁻¹ and the on-rate constant (kon) was 2.36e+06 M⁻¹ s⁻¹.

In the case of B22, the Kd is 0.00944 nM, the koff worked out at 3.92e-05 s⁻¹ and the association rate constant (kon) worked out at 4.15e+06 M⁻¹ s⁻¹.

On to B23, for which the Kd came to 0.0319 nM, the off-rate constant (koff) stood at 8.7e-05 s⁻¹ and the on-rate (kon) worked out at 2.73e+06 M⁻¹ s⁻¹.

In the case of B24, the Kd amounted to 0.00931 nM, the koff stood at 5.28e-05 s⁻¹ and the kon turned out to be 5.67e+06 M⁻¹ s⁻¹.
